Assay results as given in publication PMC3794157, “Structure of the Fibrillin-1 N-Terminal Domains Suggests that Heparan Sulfate Regulates the Early Stages of Microfibril Assembly” (Structure(London, England:1993), 2013).

Legend:
Assay in all cases: pull-down; biotinylated cbEGF41-43 or control cbEGF32-34 immobilised on M270 streptavidin-coated magnetic beads; 15 ug His-tagged protein in 50 mM Tris-HCl pH 7.4, 150 mM NaCl, 2 mM CaCl2, 0.05% Tween-20, 1% BSA for 1 hr; western blot with anti-RGS-His-HRP
Details in all cases: both partners purified
[1] = molecular target: T1, human fibrillin-1 FUN-EGF3 fragment (residues R45-E178) (human, UniProt P35555 45-178)
T1 construct: human fibrillin-1, fibrillin unique N-terminal (FUN) domain and EGF1-EGF3, residues R45-E178; The vector pQE-30 is named; also called wild-type (WT) FUN-EGF3; fibrillin N-terminal fragment

S88A FUN-EGF3 = molecular target: T2, S88A FUN-EGF3 (human, UniProt P35555 45-178, S88A)
T2 construct: human fibrillin-1 FUN-EGF3, residues R45-E178, with S88 substituted with alanine

[2] = molecular target: T3, FUN-EGF3 mutant lacking the 63Y-N-A-Y66 motif in the FUN domain (human, UniProt P35555 45-178, 63Y-N-A-Y66 deleted)
T3 construct: human fibrillin-1 FUN-EGF3, residues R45-E178, with 63Y-N-A-Y66 deleted; also called YNAY FUN-EGF3

FUN-EGF3 (G5) mutant = molecular target: T4, FUN-EGF3 (G5) mutant (human, UniProt P35555 45-178, 113S-R-S-I-Q117 replaced with five glycines)
T4 construct: human fibrillin-1 FUN-EGF3, residues R45-E178, with 113S-R-S-I-Q117 of the EGF1-EGF2 linker replaced with five glycines; also called G5 FUN-EGF3

R62A FUN-EGF3 = molecular target: T5, R62A FUN-EGF3 (human, UniProt P35555 45-178, R62A)
T5 construct: human fibrillin-1 FUN-EGF3, residues R45-E178, with R62A

Measured: binding result

T2 sequence (P35555 45-178 S88A): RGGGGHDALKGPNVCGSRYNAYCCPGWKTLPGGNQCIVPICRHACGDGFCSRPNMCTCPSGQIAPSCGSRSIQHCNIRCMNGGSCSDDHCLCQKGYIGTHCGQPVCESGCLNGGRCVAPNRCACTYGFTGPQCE
T5 sequence (P35555 45-178 R62A): as the sequence (P35555 45-178 S88A) above, with R18A, A44S counted along it
T1 sequence (P35555 45-178): as the sequence (P35555 45-178 S88A) above, with A44S counted along it
T3 sequence (P35555 other isoform, or with tags, fused parts or gaps 63Y-N-A-Y66 deleted | 63Y-N-A-Y66 deleted | mutant): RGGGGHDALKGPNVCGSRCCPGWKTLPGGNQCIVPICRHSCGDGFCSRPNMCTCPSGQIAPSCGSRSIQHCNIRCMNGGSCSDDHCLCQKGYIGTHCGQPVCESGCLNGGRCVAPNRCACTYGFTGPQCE
T4 sequence (P35555 other isoform, or with tags, fused parts or gaps with the stated changes): as the sequence (P35555 45-178 S88A) above, with A44S, S69G, R70G, S71G, I72G, Q73G counted along it

B1: human fibrillin-1 cbEGF41-43 fragment (residues D2567-V2687), biotinylated, C-terminal BirA tag (domain or fragment)
chain: not shown
modifications: biotin, site-specific, on the BirA tag
notes: Held on streptavidin-coated magnetic beads by its biotin; also called fibrillin C-terminal fragment; not shown: BirA tag, C-terminal, kept
binds: all assays above
